Measured values taken from article PMC4688034 (Cell Reports, 2015).
One block for each compound: values may come before it.

Tests used:
γH2AX foci in HeLa cells = assay: γH2AX focus formation after irradiation; type: cell-based; settings: 10 μM inhibitor, 1 hr prior to 3 Gy IR, fixed 30 min later
53BP1 BRCT2 domain = 53BP1 BRCT2 domain (UniProt Q12888); assay: fluorescence polarization titration; settings: reference: pS139 peptide, untreated; sites S139
[1] = target: fluorescein-…pSQEY (γH2AX phosphopeptide) (human); assay: fluorescence polarisation

Compound: O=c1cc(-c2cccc3c2Sc2ccccc2S3)oc(N2CCOCC2)c1 [KU55933]
γH2AX focus formation on irradiation (γH2AX foci in HeLa cells): substantially diminished

KD (53BP1 BRCT2 domain): lost; reference 1.4 ± 0.15
Compound: H2AX (γH2AX when phosphorylated on Ser139) C-terminal 13 residues, 130-142 (from UniProt P16104) λ-phosphatase treated peptide

Compound: His6-SUMO-53BP1-BRCT2 (domain or fragment)
stoichiometry N (His6-SUMO-53BP1-BRCT2): 2
Kd [1]: 1400 nM
